Assay [1] has as its target T1, human native CD3 on live cells (HuT78, Jurkat) (human, UniProt P07766 23-207; P09693 23-182; P04234 22-171).
T1 construct: whole, on cells; also called human CD3
Nature of the assay: FACS, HuT78 cells, Test 1. On the procedure:
(§1) For affinity determination, antibodies were captured by anti-human Fc surface, and used in the affinity-assay based on surface plasmon resonance (SPR) technology. The binding activity of humanized sp34 to bind native CD3 on live cells was evaluated using HuT78 cells in a FACS based assay. Live HuT78 cells were seeded in 96-well plate, and were incubated with a series of dilutions of chimeric or humanized sp34. Mouse anti-Human IgG was used as second antibody to detect antibody binding to the cell surface. EC50 values for dose-dependent binding to human native CD3 were determined by fitting the dose-response data to the four-parameter logistic model with GraphPad Prism.

The target in assay [2] is T2, CD3ε (SPR analyte) (UniProt P07766 23-126, limits assumed). In words: SPR, scFv-Fc. A general note: In SPR one partner is held on a chip, and binding of the other changes the refractive index at the surface.
T2 sequence (P07766 23-126 limits assumed): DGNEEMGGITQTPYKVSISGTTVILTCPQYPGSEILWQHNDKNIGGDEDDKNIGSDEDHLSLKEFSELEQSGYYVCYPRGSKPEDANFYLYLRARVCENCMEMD
The target in assay [3] is T1, human native CD3 on live cells (HuT78, …). Nature of the assay: FACS, HuT78 cells, Test 2. As for the experimental part: as §1
The target is the same in assay [4]. Nature of the assay: flow cytometry on live HuT78 cells, mouse anti-human IgG secondary, MFI. As for the experimental part: as §1
(A flow cytometer gives signals particle by particle.)

Assay [5] shares this target. Described as above. As for the experimental part:
as §1
This is another data set of the same source.

Assay [6] shares this target. In words: FACS, HuT78 cells, Test 3. On the procedure:
as §1

Assay [7] has the same target. Nature of the assay: flow cytometry on live HuT78 cells, mouse anti-human IgG secondary, MFI. On the procedure:
as §1
This is another data set of the same source.

Assay [8] deals with T2, CD3ε (SPR analyte). In words: SPR.
The target of assay [9] is T1, human native CD3 on live cells (HuT78, …). In words: FACS, HuT78 cells. As for the experimental part:
as §1

The next assay addresses T3, mouse CLDN6 (mouse, UniProt Q9Z262 1-219).
T3 construct: whole, on cells
T3 sequence (looked up): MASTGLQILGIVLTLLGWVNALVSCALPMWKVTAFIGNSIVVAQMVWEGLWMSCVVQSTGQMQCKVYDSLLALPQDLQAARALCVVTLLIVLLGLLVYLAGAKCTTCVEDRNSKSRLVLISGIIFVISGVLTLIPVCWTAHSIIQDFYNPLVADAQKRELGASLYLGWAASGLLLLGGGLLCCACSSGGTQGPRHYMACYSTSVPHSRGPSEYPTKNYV
Nature of the assay: flow cytometry on CHOK1/mouse CLDN6 cells, MFI(PE).

A further assay concerns the target T4, human claudin 9 (CLDN9) (human, UniProt O95484 1-217).
T4 construct: also called human CLDN9
T4 sequence: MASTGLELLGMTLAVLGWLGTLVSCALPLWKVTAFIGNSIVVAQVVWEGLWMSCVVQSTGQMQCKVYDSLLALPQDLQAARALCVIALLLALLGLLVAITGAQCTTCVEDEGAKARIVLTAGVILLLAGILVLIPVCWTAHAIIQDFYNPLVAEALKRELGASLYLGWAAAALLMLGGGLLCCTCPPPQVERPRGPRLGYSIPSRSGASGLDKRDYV
Nature of the assay: flow cytometry on HEK293T/human CLDN9 cells, MFI(PE).

In assay [10] the target is T5, cyno CLDN6 (cyno).
T5 construct: whole, on cells; also called cynomolgus CLDN6
In words: flow cytometry on CHOK1/cyno CLDN6 cells, MFI(PE).

The target in assay [11] is T6, human claudin 6 (CLDN6) (human, UniProt P56747 1-220).
T6 construct: also called human CLDN6; hCLDN6
T6 sequence: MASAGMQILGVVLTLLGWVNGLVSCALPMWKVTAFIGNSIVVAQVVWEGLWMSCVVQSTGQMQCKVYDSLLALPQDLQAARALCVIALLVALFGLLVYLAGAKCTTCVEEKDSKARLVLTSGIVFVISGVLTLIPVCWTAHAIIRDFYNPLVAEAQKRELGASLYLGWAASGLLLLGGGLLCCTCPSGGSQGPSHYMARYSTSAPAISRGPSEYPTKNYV
Nature of the assay: flow cytometry on HEK293T/human CLDN6 cells, goat anti-human IgG secondary, MFI(PE). On the procedure: For affinity determination, CLDN6 over-expressing HEK293T cells and cancer cell line PA-1 which express high levels of human CLDN6 were used to evaluate the binding activity of BG87P related engineering variants. Live cells were seeded in 96-well plate, and were incubated with a series of dilutions of chBG87P and engineered variants thereof. Goat anti-human IgG was used as second antibody to detect antibody binding to the cell surface. EC50 values for dose-dependent binding to CLDN6 expressing cell lines were determined by fitting the dose-response data to the four-parameter logistic model with GraphPad Prism. Cell binding activity of 1st round of BG87P humanization variants against HEK293T/human CLDN6 were compared to chBG87P and shown in FIG. 1A.

Assay [12] concerns the target T5, cyno CLDN6. Nature of the assay: FACS, HEK293T-cyno-CLDN6 cells.
Assay [13] addresses T6, human claudin 6 (CLDN6). Nature of the assay: FACS, HEK293T-hCLDN6 cells.
Assay [14] deals with T5, cyno CLDN6. Nature of the assay: FACS, HEK293T_cyno-CLDN6 cells.
The target of assay [15] is T6, human claudin 6 (CLDN6). In words: FACS, HEK293-hCLDN6 cells.

Like-named read-outs stand apart in the source and are kept apart here.

This is an account of results in patent US20240301062A1 (BEIGENE SWITZERLAND, published 2024).

A word on the EC50: it is the midpoint of the concentration-response curve. A high value points to weaker potency. The Kd is the constant that tells how readily two partners part at equilibrium. Low readings indicate a tighter complex, high ones a looser complex. What is called koff is the first-order rate constant of dissociation. High values mean a short-lived complex, low ones a long-lived complex. For orientation: kon means the rate constant with which the complex forms. High values mean fast association, low ones slow association. By EC50 (read off the curve) is commonly meant the concentration giving half of the maximal effect. Low values mean greater potency, high ones weaker potency.

T1 sequence (P07766 23-207, chain 1 of 3): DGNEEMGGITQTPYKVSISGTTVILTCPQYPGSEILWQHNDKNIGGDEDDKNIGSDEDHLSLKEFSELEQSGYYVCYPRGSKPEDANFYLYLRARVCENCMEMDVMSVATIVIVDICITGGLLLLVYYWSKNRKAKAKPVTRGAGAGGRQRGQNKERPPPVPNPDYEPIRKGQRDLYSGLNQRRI
T1 sequence (P09693 23-182, chain 2 of 3): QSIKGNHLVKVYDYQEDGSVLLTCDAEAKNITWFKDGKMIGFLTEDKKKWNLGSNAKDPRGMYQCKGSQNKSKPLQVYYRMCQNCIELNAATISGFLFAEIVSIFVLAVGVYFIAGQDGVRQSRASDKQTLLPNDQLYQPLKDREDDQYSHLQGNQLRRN
T1 sequence (P04234 22-171, chain 3 of 3): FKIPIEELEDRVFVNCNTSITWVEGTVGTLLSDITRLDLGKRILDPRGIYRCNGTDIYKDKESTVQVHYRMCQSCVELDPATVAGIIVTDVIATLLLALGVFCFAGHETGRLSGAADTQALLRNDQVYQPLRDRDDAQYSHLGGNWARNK

B1: humanized scFv BG562P (scFv-Fc) (Fc fusion)
scFv: EVQLVESGGGLVQPGGSLRLSCAASGFTFNTYAMNWVRQAPGKGLEWVARIRSKYNNYATYYADSVKDRFTISRDDAKNSLYLQMNSLRAEDTAVYYCVRHGNFGNSYVSWFAYWGQGTLVTVSSGGGGSGGGGSGGGGSEIVVTQSPATLSVSPGERATLSCRSSTGAVTTSNYANWVQQKPGQAPRGLIGGTNKRAPGIPARFSGSLSGDEATLTISSLQSEDFAVYYCALWYSNLWVFGGGTKVEIK
notes: BG561P with L4V in VL; not shown: human IgG1 Fc region, scFv fused to its N-terminus
On to B1, for which the EC50 in assay [1] and in [3] was 2.85 nM throughout. Further, in the assay with CD3ε (SPR analyte) [2], the dissociation constant Kd came out at 3.16 nM. The molecule also returned an off-rate (koff) in the assay with CD3ε (SPR analyte) [2] of 0.000367 s⁻¹. For the same molecule, the on-rate constant (kon) with CD3ε (SPR analyte) [2] was determined as 116000 M⁻¹ s⁻¹. In addition, the “EC50 (read off the curve)” value in assay [4] is approximately 0.1 mg/L; in assay [5], approximately 0.3 mg/L.

B2: humanized scFv BG563P (scFv-Fc) (Fc fusion)
scFv: EVQLVESGGGLVQPGGSLRLSCAASGFTFNTYAMNWVRQAPGKGLEWVGRIRSKYNNYATYYADSVKGRFTISRDDAKNSLYLQMNSLRAEDTAVYYCVRHGNFGNSYVSWFAYWGQGTLVTVSSGGGGSGGGGSGGGGSEIVVTQSPATLSVSPGERATLSCRSSTGAVTTSNYANWVQQKPGQAPRGLIGGTNKRAPGIPARFSGSLSGDEATLTISSLQSEDFAVYYCALWYSNLWVFGGGTKVEIK
notes: BG561P with L4V in VL and A49G, D65G in VH; not shown: human IgG1 Fc region, scFv fused to its N-terminus
In assay [6], B2 registered a concentration for a half-maximal effect (EC50) of 0.94 nM. Also, in the assay with CD3ε (SPR analyte) [2], the affinity, expressed as Kd, was 1.57 nM; the koff stood at 0.000772 s⁻¹; the kon is 493000 M⁻¹ s⁻¹. Besides, the EC50 in [3] came out at 0.94 nM. Moreover, the concentration giving a half-maximal response (EC50 (read off the curve)) in [7] is approximately 0.1 mg/L. Moreover, the 50% effective concentration (EC50 (read off the curve)) in assay [5] is approximately 0.1 mg/L.

B3: humanized scFv BG564P (scFv-Fc) (Fc fusion)
scFv: EVQLVESGGGLVQPGGSLRLSCAASGFTFSTYAMNWVRQAPGKGLEWVGRIRSKYNNYATYYADSVKGRFTISRDDAKNSLYLQMNSLRAEDTAVYYCVRHGNFGSSYVSWFAYWGQGTLVTVSSGGGGSGGGGSGGGGSEIVVTQSPATLSVSPGERATLSCRSSTGAVTTSNYANWVQQKPGQAPRGLIGGTNKRAPGIPARFSGSLSGDEATLTISSLQSEDFAVYYCALWYSNLWVFGGGTKVEIK
notes: BG563P with N30S and N100S in VH; not shown: human IgG1 Fc region, scFv fused to its N-terminus
As to B3, in [6], the concentration for a half-maximal effect (EC50) was 1.23 nM. Further, in the assay with CD3ε (SPR analyte) [2], the Kd turned out to be 1.39 nM, the off-rate constant (koff) came out at 0.000576 s⁻¹ and the association rate constant (kon) was 414000 M⁻¹ s⁻¹. In addition, in assay [7], the half-maximal effective concentration (EC50 (read off the curve)) is approximately 0.1 mg/L.

B4: humanized sp34 scFv BG561P (scFv-Fc) (Fc fusion)
scFv: EVQLVESGGGLVQPGGSLRLSCAASGFTFNTYAMNWVRQAPGKGLEWVARIRSKYNNYATYYADSVKDRFTISRDDAKNSLYLQMNSLRAEDTAVYYCVRHGNFGNSYVSWFAYWGQGTLVTVSSGGGGSGGGGSGGGGSEIVLTQSPATLSVSPGERATLSCRSSTGAVTTSNYANWVQQKPGQAPRGLIGGTNKRAPGIPARFSGSLSGDEATLTISSLQSEDFAVYYCALWYSNLWVFGGGTKVEIK
notes: scFv (VH-3xG4S-VK) fused to N-terminus of a human IgG1 Fc region; also called scFv-ized BG56P; not shown: human IgG1 Fc region, scFv fused to its N-terminus
As to B4, the EC50 in assay [1] turned out to be 2.46 nM; in assay [9], 4.35 nM. For the same molecule, the Kd was determined as 9.08 nM in the assay with CD3ε (SPR analyte) [8] and 4.98 nM with CD3ε (SPR analyte) [2]. The koff with CD3ε (SPR analyte) [8] was 0.000401 s⁻¹; in the assay with CD3ε (SPR analyte) [2], 0.00036 s⁻¹. Further, the figures for the kon with CD3ε (SPR analyte) [8] and with CD3ε (SPR analyte) [2] were 44200 M⁻¹ s⁻¹ and 72200 M⁻¹ s⁻¹, respectively. For the same molecule, the entries for the “EC50 (read off the curve)” value in assay [4] and in [5] were approximately 0.3 mg/L and approximately 0.5 mg/L, respectively.

B5: BG87P-34 (antibody, V domains shown)
VH: EVQLQESGGGLVQPGGSLRLSCAASGYSFSDYHINWVRQAPGKGLEWVGYIYPGSGHTKYNEKFKGRFTISRDTSSNTAYLQMNSLRAEDTAVYYCARSGIYHYVSSYYFDHWGQGTLVTVSS
VL: DIQMTQSPSSLSASVGDRVTITCKASQDAGSAVAWYQQKPGKAPKLLIYWASTRHTGVPSRFSGSGSGTDFTLTISSLQPEDFATYYCQQYSSYTFGGGTKLEIK
notes: Framework-swapped final lead (IGHV3-23 / IGKV1-39); also called BG87-34
With B5, the binding result was “binds” with mouse CLDN6 and “no binding (tested: about 250 nM (log 2.4))” with human claudin 9 (CLDN9). The concentration for a half-maximal effect (EC50 (read off the curve)) with cyno CLDN6 [10] was approximately 9 nM; in the assay with human claudin 6 (CLDN6) [11], approximately 10 nM. The “FACS Emax ratio to BG87P” value amounted to 1 ratio with cyno CLDN6 [12] and 1.03 ratio in the assay with human claudin 6 (CLDN6) [13]. This molecule also yielded an EC50 with cyno CLDN6 [14] of 8.8 nM. The “FACS-Ec50 ratio to BG87P” value with human claudin 6 (CLDN6) [15] was 1.17 ratio.
